According to paper doi:10.1101/2024.10.29.620886:

Tests used:
[1] = target: CR57 canonical diabody with a five amino acid linker 'GGGGS' between the VH and VL domains (human); experiment: SEC
[2] = target: Imdevimab diabody (human); experiment: SEC

“CR57 canonical diabody with a five amino acid linker 'GGGGS' between the VH and VL domains” gave a stoichiometry N [1] of 2.

With Imdevimab diabody the stoichiometry N [2] was 2.
